Patent US20230140293A1
Read-outs that look alike come from different tables or passages of the source.

Columns and labels:
[1] = molecular target: CH505 w020.14 gp120 (HIV-1); test: ELISA, gp120 on plate
[2] = molecular target: CH505 w053.16 gp120 (HIV-1); test: ELISA, gp120 on plate
[3] = molecular target: CH505 w030.21 gp120 (HIV-1); test: ELISA, gp120 on plate
[4] = molecular target: CH505 w030.28 gp120 (HIV-1); test: ELISA, gp120 on plate
[5] = molecular target: CH505 transmitted/founder (TF) gp120 (HIV-1); test: ELISA, gp120 on plate
[6] = molecular target: CH505 w078.33 gp120 (HIV-1); test: ELISA, gp120 on plate
[7] = molecular target: CH505 w100.B6 gp120 (HIV-1); test: ELISA, gp120 on plate
[8] = molecular target: CH505 M5 gp120 (HIV-1); test: ELISA, gp120 on plate
[9] = molecular target: CH505 M11 gp120 (HIV-1); test: ELISA, gp120 on plate
[10] = molecular target: CH505 w078.15 gp120 (HIV-1); test: ELISA, gp120 on plate
[11] = molecular target: CH505 w053.31 gp120 (HIV-1); test: ELISA, gp120 on plate
[12] = molecular target: CH0505TF.gly3.276 Env, Env-pseudotyped virus produced in 293T cells (HIV-1); test: cell-based or functional assay
[13] = molecular target: HIV-1 426c.SM (N276D) Env on Env-pseudotyped virus produced in 293s/GnTI-/- cells (Man5-enrichment) (HIV-1); test: cell-based or functional assay
[14] = molecular target: HIV-1 clade C strain 426c Env on Env-pseudotyped virus produced in 293T cells (HIV-1); test: cell-based or functional assay
[15] = molecular target: HIV-1 CH0505TF.G458Y Env on Env-pseudotyped virus produced in 293T cells (HIV-1); test: cell-based or functional assay
[16] = molecular target: HIV-1 CH0505TF.N280D Env on Env-pseudotyped virus produced in 293T cells (HIV-1); test: cell-based or functional assay
[17] = molecular target: HIV-1 CH0505TF.G458Y Env on Env-pseudotyped virus produced in 293S GnTI-/- cells (Man5-enrichment) (HIV-1); test: cell-based or functional assay
[18] = molecular target: HIV-1 CH0505TF.S365P Env on Env-pseudotyped virus produced in 293T cells (HIV-1); test: cell-based or functional assay
[19] = molecular target: HIV-1 CH0505TF.N280D Env on Env-pseudotyped virus produced in 293S GnTI- cells (HIV-1); test: cell-based or functional assay
[20] = molecular target: HIV-1 CH0505TF Env on Env-pseudotyped virus produced in 293S/GnTI-/- cells (Man5-enrichment) (HIV-1); test: cell-based or functional assay
[21] = molecular target: HIV-1 CH0505TF.S365P Env on Env-pseudotyped virus produced in 293S GnTI- cells (HIV-1); test: cell-based or functional assay
[22] = molecular target: HIV-1 CH0505TF (CH505 transmitted/founder) Env on Env-pseudotyped virus produced in 293T cells (HIV-1); test: cell-based or functional assay
[23] = molecular target: CH505 M5 gp120 (HIV-1); test: method not named in the legend (FIG. 59F); GMP M5 gp120
[24] = molecular target: CH0505TF G458C Env, pseudotyped virus produced in 293S GnTI- cells (HIV-1); test: cell-based or functional assay
[25] = molecular target: CH0505TF G458E Env, pseudotyped virus produced in 293S GnTI- cells (HIV-1); test: cell-based or functional assay
[26] = molecular target: HIV-1 CH0505TF.G458Y Env on Env-pseudotyped virus produced in 293T cells (HIV-1); test: cell-based or functional assay; remark: listed apart in the source
[27] = molecular target: CH0505TF G458W Env, pseudotyped virus produced in 293S GnTI- cells (HIV-1); test: cell-based or functional assay
[28] = molecular target: CH0505TF G458D Env, pseudotyped virus produced in 293S GnTI- cells (HIV-1); test: cell-based or functional assay
[29] = molecular target: HIV-1 CH0505TF.G458Y Env on Env-pseudotyped virus produced in 293S GnTI-/- cells (Man5-enrichment) (HIV-1); test: cell-based or functional assay; remark: listed apart in the source
[30] = molecular target: CH0505TF G458R Env, pseudotyped virus produced in 293S GnTI- cells (HIV-1); test: cell-based or functional assay
[31] = molecular target: CH0505TF G458Y.N280D Env, pseudotyped virus produced in 293S GnTI- cells (HIV-1); test: cell-based or functional assay
[32] = molecular target: CH0505TF G458F Env, pseudotyped virus produced in 293S GnTI- cells (HIV-1); test: cell-based or functional assay
[33] = molecular target: CH0505TF.gly4.G458Y Env, pseudotyped virus produced in 293T cells (HIV-1); test: cell-based or functional assay
[34] = molecular target: CH0505TF.gly4.G458Y Env, pseudotyped virus produced in 293S GnTI- cells (HIV-1); test: cell-based or functional assay
[35] = molecular target: CH0505TF G458S Env, pseudotyped virus produced in 293S GnTI- cells (HIV-1); test: cell-based or functional assay
[36] = molecular target: CH0505TF G458L Env, pseudotyped virus produced in 293S GnTI- cells (HIV-1); test: cell-based or functional assay
[37] = molecular target: CH0505TF G458K Env, pseudotyped virus produced in 293S GnTI- cells (HIV-1); test: cell-based or functional assay

Substance	log AUC [1]	log AUC [4]	log AUC [8]	log AUC [9]	log AUC [11]	IC50 (µg/ml) in TZM-bl [12]	ID50/IC50 in TZM-bl [13]	ID50/IC50 in TZM-bl [14]	IC50 (µg/ml) in TZM-bl [15]	IC50 (µg/ml) in TZM-bl [16]	IC50 (µg/ml) in TZM-bl [18]	IC50 (µg/ml) in TZM-bl [19]	IC50 (µg/ml) in TZM-bl [20]	IC50 (µg/ml) in TZM-bl [21]	IC50 (µg/ml) in TZM-bl [22]	further results
CH103 (antibody)	12.6 log AUC	12.8 log AUC	9.8 log AUC	13.4 log AUC	13.6 log AUC	0.014 µg/mL	2.2 mg/L	> 40 mg/L	5.8 µg/mL	1.2 µg/mL	> 50 µg/mL	0.24 µg/mL	0.57 µg/mL	1.7 µg/mL	1.9 µg/mL	log AUC [2]: 11.6 log AUC; log AUC [3]: 12.2 log AUC; log AUC [5]: 12.6 log AUC; log AUC [6]: 11.1 log AUC; log AUC [7]: 7.1 log AUC; log AUC [10]: 10.7 log AUC; IC50 (µg/ml) in TZM-bl [17]: 0.44 µg/mL
CH235 (antibody)	9.9 log AUC	6.7 log AUC	11.4 log AUC	7.6 log AUC	1.1 log AUC	0.034 µg/mL	> 25 mg/L	> 50 mg/L	0.1 µg/mL	> 25 µg/mL	0.6 µg/mL	3.4 µg/mL	0.03 µg/mL	0.02 µg/mL	0.3 µg/mL	Kd [23]: 8 nM; IC50 (µg/ml) in TZM-bl cells [24]: 0.009 µg/mL; IC50 (µg/ml) in TZM-bl cells [25]: 0.012 µg/mL; IC50 (µg/ml) in TZM-bl [26]: 0.2 µg/mL; IC50 (µg/ml) in TZM-bl cells [27]: < 0.005 µg/mL; IC50 (µg/ml) in TZM-bl cells [28]: 0.011 µg/mL; IC50 (µg/ml) in TZM-bl [29]: < 0.02 µg/mL; IC50 (µg/ml) in TZM-bl cells [30]: < 0.005 µg/mL; IC50 (µg/ml) in TZM-bl cells [31]: 2.69 µg/mL; IC50 (µg/ml) in TZM-bl cells [32]: < 0.005 µg/mL; IC50 (µg/ml) in TZM-bl cells [33]: 0.064 µg/mL; IC50 (µg/ml) in TZM-bl cells [34]: < 0.005 µg/mL; IC50 (µg/ml) in TZM-bl cells [35]: 0.005 µg/mL; IC50 (µg/ml) in TZM-bl cells [36]: 0.015 µg/mL; IC50 (µg/ml) in TZM-bl cells [37]: 0.022 µg/mL
